# Columns and labels:
# [1] = Body temperature monitoring for systemic anaphylactic response after intranasal C3a; assay type: in vivo, mouse
# Protocol: Purified human C3a peptide (Complement Technologies) was diluted in sterile phosphate buffered saline (PBS) to a concentration of 200 nM and a total of 20 μl (10 μl/nostril; corresponding to approximately 1.13 μg/kg body weight) of peptide solution or PBS was given intranasally to awake, hand-restrained mice held in a supine position. Solutions were administered through a pipette tip, drop-wise in 5 μl portions divided by 1 min intervals to allow for absorption. C3a or PBS was given every 24 hours on days 7 to 21 post-stroke for the short-term study or on days 7 to 28 post-stroke for the long-term study. Mice were assigned to C3a or PBS treatment using randomization stratified by body weight to avoid potential confounding effects of body weight on behavioural performance. The investigators carrying out behavioural studies and analysing data were blinded to treatment group. For the assessment of potential systemic anaphylactic response due to intranasal C3a inoculation, body temperature was monitored using a rectal temperature probe (Harvard Apparatus) inserted approximately 4 mm into the rectum of awake mice restrained by the scruff. Baseline temperature was taken before intranasal administration and 5, 15, 30, 45 and 75 min after C3a or PBS administration.
# [2] = test system: newly differentiated neurons; conditions: in vitro; cited from earlier work
# GAP-43+ puncta = test: GAP-43 immunostaining of dorsal hippocampus after neonatal HI; assay type: in vivo, mouse
# Protocol: Neuronal nuclei (NeuN), growth associated protein 43 (GAP-43), synapsin I (SYN), vesicular glutamate transporter 1 (VGLUT1), Glial Fibrillary Acidic Protein (GFAP) and ionized calcium-binding adapter molecule 1 (Iba-1) were visualized in the cornu ammonis (CA) and dentate gyrus (DG) of the dorsal hippocampus by immunohistochemistry. Briefly, following heat-induced antigen retrieval with 0.01 M citrate buffer (pH 6, 0.05% Tween 20) for 3×5 min, sections were washed 3×5 min with PBS-T (0.05% Tween 20), non-specific protein binding was reduced by incubation with blocking buffer [4% normal donkey serum (NeuN and Iba-1), 1% bovine serum albumin (GAP-43 and SYN), 3% normal goat serum (VGLUT1), 2% bovine serum albumin (GFAP) in PBS-T] for 1 h at room temperature (RT). Tissue was then incubated with the primary antibody [anti-NeuN biotinylated (1:200, MAB 377B, Millipore, Mass., USA), anti-GAP-43 (1:1000, MAB347, Millipore, Mass., USA), anti-SYN (1:150, SC-7379, Santa Cruz, Calif., USA), anti-VGLUT1 (1:500, AB5905, Millipore, Mass., USA), anti-GFAP (1:200, Z0334, Dako, Stockholm, Sweden), anti-Iba-1 (1:500, 019-19741, Wako, Osaka, Japan)] in blocking buffer overnight at 4° C. One slide per staining batch was incubated only with blocking buffer without primary antibody and used as a negative control. […]
# NeuN positive cells, GFAP positive relative area, as well as GAP-43, SYN, and VGLUT1 positive puncta were counted by using MetaMorph software (ver. 7.8.6, Molecular Devices, CA, USA) on confocal images obtained with a 20× (NeuN and GFAP) or 63× (GAP-43, SYN, and VGLUT1) objective (Carl Zeiss LSM 700 Laser Scanning Microscope, Jena, Germany). Iba-1 positive cell somata were counted on bright field images obtained with a 20× objective (Nikon Eclipse 80i). […]
# [3] = Body weight gain after neonatal HI and intranasal treatment; assay type: in vivo, mouse; conditions: across surgeries, treatments and genotypes
# From the text: Unpaired t test was used to analyze the cue-induced fear conditioning experimental data. For the analysis of the total exploration time during the object recognition test and the open field experiment, one-way Analysis of Variance (ANOVA) was used, followed by a Tukey's multiple comparisons post-hoc test. Two-way ANOVA, with a Tukey's multiple comparisons post-hoc test, was used to analyze time spent exploring individual objects during the object recognition test, as well as the histomorphologic data and image analysis data. Two-way repeated measures ANOVA with a Tukey's multiple comparisons post-hoc test were used to analyze the body weight. Data are presented as mean±SEM. P values <0.05 were considered statistically significant.
# To assess potential adverse effects of intranasal C3a administration on the overall animal health status and development, the inventors recorded animal weight gain across surgeries, treatments and different genotype conditions.
substance,measurement,setting,value
"C3a: Purified human C3a peptide (Complement Technologies), C3a receptor agonist, amino acid sequence SEQ ID NO: 1",duration of the drop in body temperature,[1]; after intranasal C3a or PBS,5 to 10 min
same,adverse or systemic effects of intranasal C3a,"[1]; even after repeated administration, stroke studies",did not observe any adverse or systemic effects
same,adverse systemic response (hypersensitivity/anaphylaxis) to intranasal C3a,[1]; judged from body temperature,absence of an adverse systemic response
same,change in body temperature after intranasal administration,"[1]; rectal probe, awake mice, baseline and 5, 15, 30, 45, 75 min after intranasal C3a, same seen with PBS",very small drop in body temperature
same,neurite outgrowth,[2],increased neurite outgrowth
same,density of GAP-43+ puncta in CA1,GAP-43+ puncta; between groups,did not find any differences between groups
same,expression of GAP-43 in the dentate gyrus,"GAP-43+ puncta; mouse, in vivo",No effect
same,average GAP-43+ punctum area in CA1 of HI injured hippocampus vs sham mice,GAP-43+ puncta; p<0.05 for PBS,"PBS treated, but not C3a treated, mice was larger compared with sham mice"
same,body weight gain,[3],neither the surgery nor the C3a treatment affected body weight gain

# Reference: patent US11266715B2, “C3A receptor agonists for use against ischemic brain injury, stroke, traumatic brain injury, spinal cord injury and neurodegenerative disorders” (priority 2016, dated 2022)
